Results published in patent US20090235392A1 (PIONEER HI BRED INTERNATIONAL, published 2009).
Each block holds one binder with its values, some of them ahead of it.

Biological target: T1, GAL4BD:CKI2(590-922) (Arabidopsis thaliana)
T1 construct: Yeast two-hybrid bait; Any linker or tag from the vector is not described; also called AT-CKI2(590-922); pRM430
Experiment: yeast two-hybrid
Text: Clones representing two independent genes, ARABIDOPSIS HISTIDINE PHOSPHOTRANSFER PROTEIN 3 (AHP3, At5G39340) and At3G28690, a putative serine/threonine protein kinase, were identified from the library screen with GAL4BD:CKI2(590-922). AHPs are the described signaling targets of canonical receptor histidine kinases, such as CRE1, AHK1 and ETR1 (Grefen and Harter, 2004). […] At3G28690 is homologous to the previously published ARABIDOPSIS PROTEIN KINASE 1 (APK1) (Hirayama and Oka, 1992) and APK2 (Ito, et al., 1997) and is designated APK3. […] APK3 has been classified as a Receptor Like Cytoplasmic Kinase (RLCK) VII (Family 1.2.2) in Arabidopsis. […] Its use in modulation of cytokinin-dependent growth responses is being pursued through both transgenic and mutant analysis.
The yeast two-hybrid assays discussed in Example 1 were conducted as follows. Polyadenylated mRNA was isolated from Arabidopsis aerial tissue using a FastTrack™ mRNA kit (Invitrogen, Carlsbad, Calif., USA). First strand cDNA was created using a cDNA synthesis kit (Stratagene, La Jolla, Calif., USA), subsequently cloned into pGADT7 (Clontech, Palo Alto, Calif., USA), and the cDNA library was transformed into the yeast strain AH109 (Clontech).

- binding result: no binding
B1: APK3(115-476) (other)
chain: MFNDLKLATRNFRPESLLGEGGFGCVFKGWIEENGTAPVKPGTGLTVAVKTLNPDGLQGHKEWLAEINFLGNLVHPSLVKLVGYCMEEDQRLLVYEFMPRGSLENHLFRRTLPLPWSVRMKIALGAAKGLAFLHEEAEKPVIYRDFKTSNILLDGEYNAKLSDFGLAKDAPDEKKSHVSTRVMGTYGYAAPEYVMTGHLTTKSDVYSFGVVLLEILTGRRSVDKSRPNGEQNLVEWVRPHLLDKKRFYRLLDPRLEGHYSIKGAQKATQVAAQCLNRDSKARPKMSEVVEALKPLPNLKDFASSSSSFQTMQPVAKNGVRTQGGGFVSRNGPPMRSLSSLNLPQASPYRYARQSPKPKGKEP
notes: Second truncated APK3 tested as a fusion protein in the two-hybrid assay; also called second truncated APK3 protein; At3G28690; not shown: two-hybrid fusion partner

- binding result: no binding
B2: full-length APK3 fusion protein (other)
chain: MATKLESFKVVEKLGVEKGEKGKMMSKKKNVKKDGDESESGFWFRFKFIFSCISSRSKVDSSMNATAVIAEPKKVIEKLEGHPAPTKDTGCAESGSSTPLMSGELKYSSKLRIFMFNDLKLATRNFRPESLLGEGGFGCVFKGWIEENGTAPVKPGTGLTVAVKTLNPDGLQGHKEWLAEINFLGNLVHPSLVKLVGYCMEEDQRLLVYEFMPRGSLENHLFRRTLPLPWSVRMKIALGAAKGLAFLHEEAEKPVIYRDFKTSNILLDGEYNAKLSDFGLAKDAPDEKKSHVSTRVMGTYGYAAPEYVMTGHLTTKSDVYSFGVVLLEILTGRRSVDKSRPNGEQNLVEWVRPHLLDKKRFYRLLDPRLEGHYSIKGAQKATQVAAQCLNRDSKARPKMSEVVEALKPLPNLKDFASSSSSFQTMQPVAKNGVRTQGGGFVSRNGPPMRSLSSLNLPQASPYRYARQSPKPKGKEP
notes: Full-length APK3 tested as a fusion protein in the two-hybrid assay; also called AtAPK3; At3G28690; not shown: two-hybrid fusion partner
